Reference: US6645728 (University of California, dated 2003)

B1: Myc-N570-947 (other, not shown: small tags and cut ends)
chain: GRSCDAKVDVWSSCCMMLHMLNGCHPWTQFFRGPLCLKIASEPPPVREIPPSCAPLTAQAIQEGLRKEPIHRVSAAELGGKVNRALQQVGGLKSPWRGEYKEPRHPPPNQANYHQTLHAQPRELSPRAPGPRPAEETTGRAPKLQPPLPPEPPEPNKSPPLTLSKEESGMWEPLPLSSLEPAPARNPSSPERKATVPEQELQQLEIELFLNSLSQPFSLEEQEQILSCLSIDSLSLSDDSEKNPSKASQSSRDTLSSGVHSWSSQAEARSSSWNMVLARGRPTDTPSYFNGVKVQIQSLNGEHLHIREFHRVKVGDIATGISSQIPAAAFSLVTKDGQPVRYDMEVPDSGIDLQCTLAPDGSFAWSWRVKHGQLENRP
B2: Myc-N1-220 (other, not shown: small tags and cut ends)
chain: MAVMEMACPGAPGSAVGQQKELPKPKEKTPPLGKKQSSVYKLEAVEKSPVFCGKWEILNDVITKGTAKEGSEAGPAAISIIAQAECENSQEFSPTFSERIFIAGSKQYSQSESLDQIPNNVAHATEGKMARVCWKGKRRSKARKKRKKKSSKSLAHAGVALAKPLPRTPEQESCTIPVQEDESPLGAPYVRNTPQFTKPLKEPGLGQLCFKQLGEGLRPA
notes: Treated as one construct; also called Myc-N1-200; N1-200
B3: Myc-N1-624 (other, not shown: small tags and cut ends)
chain: MAVMEMACPGAPGSAVGQQKELPKPKEKTPPLGKKQSSVYKLEAVEKSPVFCGKWEILNDVITKGTAKEGSEAGPAAISIIAQAECENSQEFSPTFSERIFIAGSKQYSQSESLDQIPNNVAHATEGKMARVCWKGKRRSKARKKRKKKSSKSLAHAGVALAKPLPRTPEQESCTIPVQEDESPLGAPYVRNTPQFTKPLKEPGLGQLCFKQLGEGLRPALPRSELHKLISPLQCLNHVWKLHHPQDGGPLPLPTHPFPYSRLPHPFPFHPLQPWKPHPLESFLGKLACVDSQKPLPDPHLSKLACVDSPKPLPGPHLEPSCLSRGAHEKFSVEEYLVHALQGSVSSSQAHSLTSLAKTWAARGSRSREPSPKTEDNEGVLLTEKLKPVDYEYREEVHWATHQLRLGRGSFGEVHRMEDKQTGFQCAVKKVRLEVFRAEELMACAGLTSPRIVPLYGAVREGPWVNIFMELLEGGSLGQLVKEQGCLPEDRALYYLGQALEGLEYLHSRRILHGDVKADNVLLSSDGSHAALCDFGHAVCLQPDGLGKSLLTGDYIPGTETHMAPEVVLGRSCDAKVDVWSSCCMMLHMLNGCHPWTQFFRGPLCLKIASEPPPVREIPPSCAP
notes: C-terminal deletion mutant of NIK
B4: Myc-N1-578 (other, not shown: small tags and cut ends)
chain: MAVMEMACPGAPGSAVGQQKELPKPKEKTPPLGKKQSSVYKLEAVEKSPVFCGKWEILNDVITKGTAKEGSEAGPAAISIIAQAECENSQEFSPTFSERIFIAGSKQYSQSESLDQIPNNVAHATEGKMARVCWKGKRRSKARKKRKKKSSKSLAHAGVALAKPLPRTPEQESCTIPVQEDESPLGAPYVRNTPQFTKPLKEPGLGQLCFKQLGEGLRPALPRSELHKLISPLQCLNHVWKLHHPQDGGPLPLPTHPFPYSRLPHPFPFHPLQPWKPHPLESFLGKLACVDSQKPLPDPHLSKLACVDSPKPLPGPHLEPSCLSRGAHEKFSVEEYLVHALQGSVSSSQAHSLTSLAKTWAARGSRSREPSPKTEDNEGVLLTEKLKPVDYEYREEVHWATHQLRLGRGSFGEVHRMEDKQTGFQCAVKKVRLEVFRAEELMACAGLTSPRIVPLYGAVREGPWVNIFMELLEGGSLGQLVKEQGCLPEDRALYYLGQALEGLEYLHSRRILHGDVKADNVLLSSDGSHAALCDFGHAVCLQPDGLGKSLLTGDYIPGTETHMAPEVVLGRSCDAKVD
notes: as for B3
B5: Myc-N1-366 (other, not shown: small tags and cut ends)
chain: MAVMEMACPGAPGSAVGQQKELPKPKEKTPPLGKKQSSVYKLEAVEKSPVFCGKWEILNDVITKGTAKEGSEAGPAAISIIAQAECENSQEFSPTFSERIFIAGSKQYSQSESLDQIPNNVAHATEGKMARVCWKGKRRSKARKKRKKKSSKSLAHAGVALAKPLPRTPEQESCTIPVQEDESPLGAPYVRNTPQFTKPLKEPGLGQLCFKQLGEGLRPALPRSELHKLISPLQCLNHVWKLHHPQDGGPLPLPTHPFPYSRLPHPFPFHPLQPWKPHPLESFLGKLACVDSQKPLPDPHLSKLACVDSPKPLPGPHLEPSCLSRGAHEKFSVEEYLVHALQGSVSSSQAHSLTSLAKTWAARGSR
notes: as for B3

These binders were tested against T1, NIK-T7 (Homo sapiens (Human), UniProt Q99558 1-947) (assay: co-immunoprecipitation from 293 lysates, anti-T7 IP, anti-Myc blot).
T1 construct: Full-length NIK in pEV3S with C-terminal T7 tag; also called pEV-NIK-T7

Binding result, no binding:
B1
B2

The binders below were run against T2, IKKα-T7 (murine, UniProt Q60680 1-745) in the same assay as above.
T2 construct: also called T7-IKKα; murine IKKα/CHUK
T2 sequence (looked up): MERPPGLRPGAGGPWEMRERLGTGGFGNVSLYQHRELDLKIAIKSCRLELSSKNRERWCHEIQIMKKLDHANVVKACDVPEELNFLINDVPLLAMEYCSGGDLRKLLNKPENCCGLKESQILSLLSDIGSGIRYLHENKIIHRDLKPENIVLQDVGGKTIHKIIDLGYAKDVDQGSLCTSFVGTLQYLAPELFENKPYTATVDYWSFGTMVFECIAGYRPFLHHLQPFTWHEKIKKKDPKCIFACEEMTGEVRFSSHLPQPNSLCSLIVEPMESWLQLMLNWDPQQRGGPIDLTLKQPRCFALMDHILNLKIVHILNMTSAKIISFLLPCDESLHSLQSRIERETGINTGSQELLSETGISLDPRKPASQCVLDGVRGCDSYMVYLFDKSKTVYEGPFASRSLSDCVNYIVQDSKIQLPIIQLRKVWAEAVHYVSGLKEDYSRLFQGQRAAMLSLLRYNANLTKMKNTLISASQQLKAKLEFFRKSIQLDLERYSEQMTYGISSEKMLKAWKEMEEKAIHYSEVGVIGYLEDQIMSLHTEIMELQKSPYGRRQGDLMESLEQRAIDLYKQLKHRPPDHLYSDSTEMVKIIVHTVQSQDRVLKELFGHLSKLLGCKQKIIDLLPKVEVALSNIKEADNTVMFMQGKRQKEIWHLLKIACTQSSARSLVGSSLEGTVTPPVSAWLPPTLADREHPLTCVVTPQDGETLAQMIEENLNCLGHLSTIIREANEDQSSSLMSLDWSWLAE

Binding result, no binding:
B2
B3
B4
B5
